Source: PMC6908506, “Development of Foot-and-Mouth Disease Virus-Neutralizing Monoclonal Antibodies Derived From Plasmablasts of Infected Cattle and Their Germline Gene Usage” (Frontiers in Immunology, 2019)
Where a chain is given by its changes, count along the chain named.

B1: B81 (antibody, V domains shown)
VH: QVQLRESGPSLVKPSQTLSLTCTVSGFSLSNYAIGWVRQAPGKAPEWVVDTDVDGGTAYNPALKSRLSITKDNSKSQVSLSLNGVTPEDTATYYCVKLSRESAWLFFHVDAWGQGLLITISS
VL: QAVLTQPSSVSGSLGQSVSITCSGSSGNIGRYGVDWYQQVPGSGLRTIIYASSRRPSGVPDRFSGSKSGNTATLTISSLQAEDEADYFCAGGDENIIVPLFGAGTTLTVL
notes: also called HRP-B81
B2: 62 (antibody, V domains shown)
VH: QVQLRESGPSLVKPSQTLSLTCTVSGFSLSDKDVGWVRQAPGTALEWLAVIYNAGSTSYNPTLESRLSITKDNSKSQVSLSLSSVTTEDTATYYCALGNYWAWGQGLLVTVSS
VL: QAALTQPSSVSGSLGQRVSITCSGSSSNIGRGNYVNWFQQIPGSAPRTLIYGATNRASGVPDRFSGSRSGDTATLTISPLQAEDEADYFCAAYDINGNAVFGSGTTLTVL
B3: B64 (antibody, V domains shown)
VH: QVQLRESGPSLVKPSQTLSLTCTVSGFSLSNYDVAWVRQPPGKALECLGGVSISGRTDYNPALKSRLSITKDNSKNQVSLSLSSVTTEDTATYYCAKFFGDYGYDYYGCGYGAGDHYVDAWGQGLLVAVSS
VL: QAVLTQPSSVSGSLGQRVSITCSGSSSNVGNGYVSWYQLIPGSAPRTLIYGDTSRASGVPDRFSGSRSGNTATLTISSLQAEDEADYFCASAEGSSSNAGFGSGTTLIVL
B4: E16 (antibody)
VH: QVQLRESGPSLVKPSQTLSLTCTVSGFSLSDKAVGWVRQAPGKALEWLGSIDGGEKTTYNPGLKSRLSITKDNSKNQVSLSVSSVSTEDSATYYCSIVYQKRERKCPDGYRPGTFCGSGINARDCRYDGCYASEHWQCCDTYTPGTSAYNFHIDAWGQGLLVTVSS
VL: B3 VL with N31K, L39R, G51D, A81V, G100V, I108T
B5: E10 (antibody, V domains shown)
VH: QVQLRESGPSLVKPSQTLSLTCTVSGFSLSSNGVVWVRQAPGKALEWVGCSRGEGSTFYNQALRSRLSITKDNSKSQVSLSVSSVTPEDTATYYCTKVYNGGCGRRGYDAAAYVDAWGQGLLVTVSS
VL: QAVLTQPSSVSGSLGQRVSITCSGRSNNIGGNGVGWYQQVPGSGLRTIIYGSSSRPSGVPDRFSGSKSGNTATLTISSLQAEDEADYFCATADYSSGTAVFGSGTTLTVL
B6: A7 (antibody, V domains shown)
VH: QVQLRESGPSLVKPSQTLSLTCTVSGFSLSSYAVNWVRQAPGKALECLGGISSSGSTGYKPALKSRLSITKDNSKSQVSLSVSNVTPEDTATYYCVKSYWDYNDYGCCSGGNGVGFDAWGQGLLVTVSS
VL: B5 VL with R25S, G31S, N32Y, G33A, G51S, S96R, G97S, T106I
B7: E9 (antibody, V domains shown)
VH: QVQLRESGPSLVKPSQTLSLTCTVSGFSLSNYAVSWVRQAPGKALECLGSISSDGNTGYNPALKSRLSITKDNSKSQVSLSVSSATPEDTATYYCTKCHYPGGCCGYWNDDHVDAWGQGLLVTVSS
VL: B5 VL with S19T, R25S, N27S, G31M, N32Y, G33D, S77M, A90T, G97S, A99V
B8: B59 (antibody, V domains shown)
VH: QVQLRESGPSLVKPSQTLSLTCTVSGFSLSDYAVGWVRQAPGKALEWVGGISSGGTTCSKPALKSRLSITRDSSKSQVSLFVTSMTPEDTATYYCAKYFRHDYDVGCSYIMEAVDAWGQGLLVTVSS
VL: QAVLTQPSSVSGSLGQRVSITCSGSSSNVGRGNYVNWFQQIPGSAPRTLIYGATSRASGVPNRFSGSRSGNTATLTISSLQAEDEADYFCAVWDDNIRNAVFGSGTTLILL
B9: B54 (antibody, V domains shown)
VH: QVQLRESGPSLVKPSQTLSLTCTVSGFSLSSNAVVRVRQAPGKTLEWLGGICSGGATSFNPALKSRLSITKDNSKSQVSLSVSSVTPEDTATYYCMRVGSCFGCGDRCGYGYPYTYVDVWGQGLLVTVSP
VL: QAVLTQPSSVSGSLGQRVSITCSGSSSNVGTGNYVSWFQQIPGSAPRTLIYGATSRASGVPDRFSGSRSGNTATLTISSLQAEDEADYFCASYQIGNTAVFGSGTTLTVL
B10: E12 (antibody, V domains shown)
VH: QVQLRESGPSLVKPSQTLPLTCTVSGFSLSDYGVGWVRQAPGKALEWLGVIYYAGRTVYNPALKSRLSITKDNSKSQISLSLSSVITEDTATYYCTRCYEDYYYDCIDWGHRYDLWGQGLLVTVSS
VL: B9 VL with S36T, T48I, T54S, A57V, A91T, Q94E, I95S, G96D, N97Y
B11: E32 (antibody, V domains shown)
VH: QVQLRESGPSLVKPSQTLSLTCTVSGFSLSNYALNWVRQAPGKALECLGGIGPSGHTDYNPALKSRLIITKDNSKNQVSLSVSSVTPEDTATYICARDSGIYGTSGWGCIGGFDDNYIDAWGHGLLVTVSS
VL: QAVLTQPSSVSGSLGQRVSITCSGSSNNIGAHGVGWYQQIPGSGLRTIIYNNSKRPSGVPDRFSGSKSGNTATLTISSLQAGDEADYFCATSDYSTRSSAFGSGTTLTVL
B12: E11 (antibody, V domains shown)
VH: QVQLRESGPSLVKPSQTLSLTCTVSGFSLNSYAVTWVRQAPGKALECLGSIGSRGGTGYNQALKSRLSITKNNSKSQVSLSVRSVTPEDTATYYCVKESGSGYWDDACWGFGVGDDYVDTWGHGLLVTVST
VL: QAVLTQPSSVSGSLGQRVSITCSGSSSNVGRGNYVSWFQQLPGAAPRTLIYAATSRASGVPDRFSGSRSGNTATLTISSLQAEEEAYYFCAVYDTSSKAAVFGSGTTLTVL
B13: B51 (antibody, V domains shown)
VH: QVQLRESGPSLVKPSQTLSLTCTVSGFSLSSYGVIWVRQAPGKALECLGQITTGGITGYNPALKSRLSITKDNSEGQVSLSLSSVTTEDTATYYCVKEHDNYGDFSGGCLHAAYVDTWGQGLLVTVSS
VL: QAVLTQPSSVSGSLGQRVSITCSGSSSNIGLYAVGWYQQVPGSGLRSIIYSSRSRPSGVPDRFSGSKSGNTATLTISSLQAEDEADYFCVAYDSSSDSAIFGSGTTLTVL
B14: 60 (antibody, V domains shown)
VH: QVQLRESGPSLVKPSQTLSLTCTISGFSLSDATVGWVRQASGKALEWLGAIWPSGSTGYNLGLKSRLTITKDNSKTQVFLSLNSLTPEDTATYHCTGGGIGFIWGQGLLVTVSP
VL: QAVLTQPSSVSGSLGQRVSITCSGSPNNVGLGNFVSWFQQIPGSAPRSLIYGATSRVSGVPDRFSGSRSMNTATLTISSLQAEDEADYFCASYERNNTGVFGSGTTLTVL
B15: E53 (antibody, V domains shown)
VH: QVQLRESGPSLVKPSQTLSLTCTVSGFSLSSYAVDWVRQAPGKALECLGGISRDGDISYNPALKSRLSITKDDSKSQVSLSLSSVTSEDTATYYCAKATDGGYFRSTYGCQGFTVNTYVDIWGQGFLVTVSS
VL: QAVLTQPSSLSGSLGQRVSITCSGSSGNIGTRDVSWYQQIPGSGLRTIIYGNSSRPSGVPDRFSGSRSGNTATLRIRSLQPEDEADYFCGSADYSSEIAVFGSGTTLTVL
B16: E28 (antibody, V domains shown)
VH: QVQLRESGPSLVKPSQTLSLTCTISGFSLSDYAVAWVRQAPGKAPEWVGGISTGGRTNYNPTLESRLSITKDNAKSQISLTVSSVTPEDTATYLCLRLACYDHEGYRCFGYDLNWGVDAWGQGLLVSVSS
VL: QAVLTQPSSVSGSLGQRVSITCSGSSTNIGTYYVGWYQQVPGSGLRTIIYGTTNRPSGVPDRFSGSKSSGNTATLTISSLQAEDEADYFCVTYDSTITPSAVFGSGTTLTVL
B17: E40 (antibody)
VH: QVQLRESGPSLVKPSQTLSLTCTASGFSLSDKAVGWVRQAPGKALEWLGGIDTGGNKDYNPGLKSRLSITKDNSKSQMSLSMSSVTTEDSATYYCTTVHQKTNTAKTCRDGHVDVSSCYGSSGCPRSGCCACRRWGGTACSICSSRIVTYTYEFHVDVWGQGLLVTVSS
VL: B3 VL with A92P, G94D, S97T, G100L, I108T
B18: E43 (antibody)
VH: QVQLRESGPSLVKPSQTLSLTCTASGFSLRDKAVGWVRHTPGKALEWIGSIDSSGNTGYNPGLKSRLSITKDNSKSQVSLSVSAVLSEDSATYYCTVVHQETRQEEGCPDGYLYDSRCGPGGGCSGRLCTRTPSARANDFCCTGRRIRTSTYQHHIDAWGQGLLVTVSS
VL: B3 VL with I40T, S54T, F63V, S68F, G94D, S95G, S96N, G100V, I108T
B19: F4 (antibody, V domains shown)
VH: QVQLRESGPSLVKPSQTLSLTCTVSGFSLSSSGVVWVRQAPGKALEWVGSLSSGGLTSRNPALKSRISITKDNSKSQVSLSMSSVTPEDTATYYCAKCGGFYGSTCNGYGSSYDFWGRGLLVTVSS
VL: B3 VL with G94D, G100V, I108T
B20: F36 (antibody, V domains shown)
VH: QVQLRESGPSLVKPSQTLSLTCTVSGFSLSSYAVNWVRQAPGKALECLGSIGSGGSTGYNPALKSRLSITKDNSKSQVSLSVSSVTPEDTATYYCAKTTYSGDSRTFYGCYGSGSAYETYVDTWGQGLLVTVSS
VL: B5 VL with R25S, G31N, G35V, S53T, S54G, A90G, Y94D, G97S, T98I
B21: F136 (antibody, V domains shown)
VH: QVQLRESGPSLVKPSQTLSLTCTVSGFSLSSKGVHWIRQAPGKALEWLGSTWSFGSAFNPALKSRLSITKDNSKSQVALSLSTVTPEDTATYYCARELYNGGSTWDAINGYNEERYYFDAWGQGLLVTVSS
VL: QAVLTQPSSVSGSLGQSVSITCSGSSSNVGYGNYVSWFQQIPGSAPRMLIYGATSRASGVPYRFSGSRSGNTATLTINSLQAEDEADYFCASPDSSSSGYFAVFGSGTTLTVL

Each binder was assayed against T1, FMDV O/Mya/98 146S antigen (Foot-and-mouth disease virus serotype …, UniProt G8JKC2, strain) (assay: ELISA). Conditions: both partners purified.
T1 construct: also called purified virus antigen; copies: + + +
B1: binds.
B2: binds.
B3: binds.
B4: binds.
B5: binds.
B6: binds.
B7: binds.
B8: binds.
B9: binds.
B10: binds.
B11: binds.
B12: binds.
B13: binds.
B14: binds.
B15: binds.
B16: binds.

These binders were tested against T1, FMDV O/Mya/98 146S antigen (assay: immunostaining of cells or tissue). Conditions: one partner purified.
B17: binds.
B18: binds.
B19: binds.
B20: binds.

Each binder was assayed against T1, FMDV O/Mya/98 146S antigen (assay: cell-based or functional assay). Conditions: not given.
For B21, the “virus neutralizing test on BHK-21 cells, IC50” value was 1.67 µg/mL.
